Test [1] addresses T1, soluble CD4 (sCD4): human CD4 extracellular domain fused with a 6×His tag via a GS linker, dimerized with a … (human, UniProt P01730 26-396).
T1 construct: also called soluble CD4 protein; soluble CD4 dimer
Put plainly: flow cytometry, K562 cells.

Test [2] has as its target T2, recombinant 10× His-tagged CD4 protein (extracellular domain of human CD4, GS linker, 10× histidine tag) (human, UniProt P01730 26-390).
T2 construct: also called recombinant CD4; sCD4 (analyte)
Put plainly: biolayer interferometry. For orientation: In BLI a coated tip is dipped into the sample, and binding shifts an interference pattern.

Test [3] concerns the target T2, recombinant 10× His-tagged CD4 protein …. Nature of the test: BLI KD set against the earlier estimate of KD >2 mM between CD4 and HLA class II.
For test [4] the target is unchanged. Put plainly: biolayer interferometry (Octet Red), biotinylated DP4 on streptavidin sensors, CD4 as analyte, steady-state fit.
In test [5] the target is T1, soluble CD4 (sCD4): human CD4 …. Put plainly: flow cytometry, sCD4 MFI of K562 cells. On the technique in general: A flow cytometer gives signals particle by particle.

Where a chain is given by its changes, count along the chain named. Names may count otherwise. Bounds are passed on as bounds.

B1: wild-type DP4 (DPA1*01:03 / DPB1*04:01) on K562 cells (other, human)
MHC II alpha: not shown
MHC II beta: not shown
notes: whole, on cells; also called HLA-DP4
With B1, in test [1], the binding result is reported as “no binding”.

B2: biotinylated recombinant wild-type DP4 (extracellular domains of DPA1*01:03 and wild-type DPB1*04:01, leucine zippers) (other)
MHC II alpha: IKADHVSTYAAFVQTHRPTGEFMFEFDEDEMFYVDLDKKETVWHLEEFGQAFSFEAQGGLANIAILNNNLNTLIQRSNHTQATNDPPEVTVFPKEPVELGQPNTLICHIDKFFPPVLNVTWLCNGELVTEGVAESLFLPRTDYSFHKFHYLTFVPSAEDFYDCRVEHWGLDQPLLKHWEAQEPIQMPETTETGGGGSLEIRAAFLRQRNTALRTEVAELEQEVQRLENEVSQYETRYGPLGGGKGSHHHHHHHHHH
MHC II beta: RATPENYLFQGRQECYAFNGTQRFLERYIYNREEFARFDSDVGEFRAVTELGRPAAEYWNSQKDILEEKRAVPDRMCRHNYELGGPMTLQRRVQPRVNVSPSKKGPLQHHNLLVCHVTDFYPGSIQVRWFLNGQEETAGVVSTNLIRNGDWTFQILVMLEMTPQQGDVYTCQVEHTSLDSPVTVEWKAQSDSARSKGGGGSLEIEAAFLERENTALETRVAELRQRVQRLRNRVSQYRTRYGPLGGGKGSGLNDIFEAQKIEWHE
notes: also called biotinylated wild-type DP4 (ligand)
Take B2: the binding result in test [2] is recorded as “no binding (tested: 26 µM)”.

B3: biotinylated recombinant DP4^[change]/[change] (extracellular domains of DPA1*01:03 and DPB1*04:01 [ (other)
MHC II alpha: B2 MHC II alpha
MHC II beta: B2 MHC II beta with L112W, V141M
For orientation: Kd means the concentration at which binding is half-saturated. B3: the “fold improvement in the binding affinity” value in test [3] is ≥ 200 fold. Besides, the Kd in test [4] stood at 8.9 µM.

B4: V114M (other)
DP alpha chain: IKADHVSTYAAFVQTHRPTGEFMFEFDEDEMFYVDLDKKETVWHLEEFGQAFSFEAQGGLANIAILNNNLNTLIQRSNHTQATNDPPEVTVFPKEPVELGQPNTLICHIDKFFPPVLNVTWLCNGELVTEGVAESLFLPRTDYSFHKFHYLTFVPSAEDFYDCRVEHWGLDQPLLKHWEAQEPIQMPETTET
DP beta chain: RATPENYLFQGRQECYAFNGTQRFLERYIYNREEFARFDSDVGEFRAVTELGRPAAEYWNSQKDILEEKRAVPDRMCRHNYELGGPMTLQRRVQPRVNVSPSKKGPLQHHNLLMCHVTDFYPGSIQVRWFLNGQEETAGVVSTNLIRNGDWTFQILVMLEMTPQQGDVYTCQVEHTSLDSPVTVEWKAQSDSARSK
notes: also called DP4 with the single V114M substitution on K562 cells
For the molecule B4, the binding result in test [5] is given as “no binding”.

B5: M158I (other)
DP alpha chain: B4 DP alpha chain
DP beta chain: B4 DP beta chain with M114V, M158I
notes: also called DP4 with the single M158I substitution on K562 cells
As to B5, the binding result in test [5] is reported as “no binding”.

B6: L112W/M158I (other)
DP alpha chain: B4 DP alpha chain
DP beta chain: B4 DP beta chain with L112W, M114V, M158I
notes: also called DP4 reversion mutant on K562 cells
Turning to B6, the binding result in test [5] is “no binding”.

B7: L112W/V114M/M158I (other)
DP alpha chain: B4 DP alpha chain
DP beta chain: B4 DP beta chain with L112W, M158I
notes: as for B6
Consider B7, for which the binding result in test [5] is recorded as “no binding”.

B8: V114M/M158I (other)
DP alpha chain: B4 DP alpha chain
DP beta chain: B4 DP beta chain with M158I
notes: as for B6
Regarding B8, the binding result in test [5] is “no binding”.

B9: L112W/V114M (other)
DP alpha chain: B4 DP alpha chain
DP beta chain: B4 DP beta chain with L112W
notes: as for B6
B9: the binding result in test [5] is on record as “no binding”.

Source of the values: patent US20220281948A1 (UNIVERSITY HEALTH NETWORK, published 2022).
